Measured values from patent US20220010021A1 (Sanofi, published 2022).
Numbering of substitutions follows the chain as printed. In names and notes the source's numbering stands.

Experiments:
[1] = target: cell surface receptor composed of the tyrosine kinase receptor FGFR1c and co-receptor beta-Klotho (KLB) (human, UniProt P11362 22-822; Q86Z14 1-1044); assay: cell-based or functional assay
[2] = target: cell surface receptor composed of FGFR1c and co-receptor beta-Klotho (KLB) (human, UniProt P11362 22-822; Q86Z14 1-1044); assay: cell-based or functional assay
Target sequence in this assay (P11362 22-822, chain 1 of 2): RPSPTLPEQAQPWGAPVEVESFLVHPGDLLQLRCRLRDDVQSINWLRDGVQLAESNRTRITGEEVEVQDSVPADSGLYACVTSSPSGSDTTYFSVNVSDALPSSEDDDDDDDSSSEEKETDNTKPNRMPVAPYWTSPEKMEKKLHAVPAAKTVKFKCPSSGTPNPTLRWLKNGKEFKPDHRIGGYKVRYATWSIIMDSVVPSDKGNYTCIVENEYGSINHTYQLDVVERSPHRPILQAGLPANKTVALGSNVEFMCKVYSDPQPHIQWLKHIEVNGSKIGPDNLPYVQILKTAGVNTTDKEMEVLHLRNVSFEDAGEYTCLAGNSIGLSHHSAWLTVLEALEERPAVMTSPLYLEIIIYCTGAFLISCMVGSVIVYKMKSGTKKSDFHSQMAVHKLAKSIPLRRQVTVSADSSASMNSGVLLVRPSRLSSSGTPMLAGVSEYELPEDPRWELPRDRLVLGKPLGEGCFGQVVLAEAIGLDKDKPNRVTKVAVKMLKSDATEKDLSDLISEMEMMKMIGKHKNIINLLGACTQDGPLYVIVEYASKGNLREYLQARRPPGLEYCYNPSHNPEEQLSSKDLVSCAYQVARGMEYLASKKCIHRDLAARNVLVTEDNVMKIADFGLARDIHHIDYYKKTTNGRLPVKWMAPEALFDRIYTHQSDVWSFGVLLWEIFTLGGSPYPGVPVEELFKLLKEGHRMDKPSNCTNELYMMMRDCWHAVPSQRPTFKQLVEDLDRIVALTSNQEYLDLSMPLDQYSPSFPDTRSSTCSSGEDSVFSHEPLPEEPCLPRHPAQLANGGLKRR
Target sequence in this assay (Q86Z14 whole entry, chain 2 of 2): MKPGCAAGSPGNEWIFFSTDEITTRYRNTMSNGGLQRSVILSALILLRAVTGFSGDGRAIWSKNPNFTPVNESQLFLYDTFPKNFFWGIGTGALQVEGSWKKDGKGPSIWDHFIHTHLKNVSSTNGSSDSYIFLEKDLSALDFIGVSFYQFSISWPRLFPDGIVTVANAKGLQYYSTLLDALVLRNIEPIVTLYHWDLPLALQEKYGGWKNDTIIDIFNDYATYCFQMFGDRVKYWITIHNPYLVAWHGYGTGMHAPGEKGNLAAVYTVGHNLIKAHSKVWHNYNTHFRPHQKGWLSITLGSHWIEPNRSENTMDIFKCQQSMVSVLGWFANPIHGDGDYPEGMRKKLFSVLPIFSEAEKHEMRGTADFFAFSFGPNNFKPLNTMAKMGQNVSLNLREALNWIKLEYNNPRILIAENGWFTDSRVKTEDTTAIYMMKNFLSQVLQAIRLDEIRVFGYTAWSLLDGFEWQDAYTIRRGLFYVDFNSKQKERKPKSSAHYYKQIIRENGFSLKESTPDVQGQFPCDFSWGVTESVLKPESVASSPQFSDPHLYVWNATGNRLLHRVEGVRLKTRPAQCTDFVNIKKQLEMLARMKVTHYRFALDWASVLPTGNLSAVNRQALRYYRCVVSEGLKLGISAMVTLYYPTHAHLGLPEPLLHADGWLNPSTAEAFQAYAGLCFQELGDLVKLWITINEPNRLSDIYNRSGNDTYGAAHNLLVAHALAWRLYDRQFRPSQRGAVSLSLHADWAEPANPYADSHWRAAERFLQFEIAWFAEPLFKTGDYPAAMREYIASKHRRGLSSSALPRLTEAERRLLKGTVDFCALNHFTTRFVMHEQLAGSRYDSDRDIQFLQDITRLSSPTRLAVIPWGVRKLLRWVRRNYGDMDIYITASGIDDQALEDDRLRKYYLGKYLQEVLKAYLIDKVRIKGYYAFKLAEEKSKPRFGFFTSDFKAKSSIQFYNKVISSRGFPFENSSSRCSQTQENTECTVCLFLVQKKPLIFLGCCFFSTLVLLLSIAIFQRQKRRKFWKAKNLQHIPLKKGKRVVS

[3] = target: T1, human beta-Klotho (KLB) (human, UniProt Q86Z14 53-997); assay: BLI off-rate screen, supernatant;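 note: expression supernatants tested at 25 µg/mL, dissociation followed for 1800 s in D-PBS with 0.1% BSA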
T1 construct: Bought soluble protein; also called human KLB; ß-Klotho
T1 sequence (looked up): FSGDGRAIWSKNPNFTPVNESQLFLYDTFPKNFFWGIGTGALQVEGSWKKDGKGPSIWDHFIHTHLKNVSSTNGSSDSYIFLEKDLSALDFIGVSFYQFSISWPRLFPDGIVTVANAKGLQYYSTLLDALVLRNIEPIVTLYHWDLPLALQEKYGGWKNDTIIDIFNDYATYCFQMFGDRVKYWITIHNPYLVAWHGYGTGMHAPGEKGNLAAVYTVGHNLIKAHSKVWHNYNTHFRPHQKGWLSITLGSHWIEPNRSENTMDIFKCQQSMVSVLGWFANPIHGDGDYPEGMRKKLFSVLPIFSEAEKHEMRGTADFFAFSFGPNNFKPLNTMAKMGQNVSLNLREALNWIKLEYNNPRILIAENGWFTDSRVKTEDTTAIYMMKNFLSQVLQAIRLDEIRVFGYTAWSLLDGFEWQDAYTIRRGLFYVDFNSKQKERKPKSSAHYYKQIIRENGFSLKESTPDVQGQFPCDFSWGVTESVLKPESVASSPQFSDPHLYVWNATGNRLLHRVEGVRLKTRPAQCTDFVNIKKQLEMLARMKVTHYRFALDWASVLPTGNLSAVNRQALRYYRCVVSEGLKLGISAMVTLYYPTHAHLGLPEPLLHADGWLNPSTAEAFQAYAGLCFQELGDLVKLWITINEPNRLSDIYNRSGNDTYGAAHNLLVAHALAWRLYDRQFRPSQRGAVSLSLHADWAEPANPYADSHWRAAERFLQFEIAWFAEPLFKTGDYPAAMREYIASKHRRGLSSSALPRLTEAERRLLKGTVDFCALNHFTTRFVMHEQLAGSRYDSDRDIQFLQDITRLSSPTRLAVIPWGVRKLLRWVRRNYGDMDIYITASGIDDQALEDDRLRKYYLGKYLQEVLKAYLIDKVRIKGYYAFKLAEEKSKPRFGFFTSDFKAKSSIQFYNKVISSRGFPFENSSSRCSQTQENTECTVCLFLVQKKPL

[4] = target: cell surface receptor composed of FGFR1c and co-receptor beta-Klotho (KLB) (human, UniProt P11362 22-822; Q86Z14 1-1044); assay: cell-based or functional assay; remark: listed apart in the source
Target sequence in this assay (P11362 22-822, chain 1 of 2): as the sequence (P11362 22-822, chain 1 of 2) above
Target sequence in this assay (Q86Z14 whole entry, chain 2 of 2): as the sequence (Q86Z14 whole entry, chain 2 of 2) above

[5] = target: T2, human beta-Klotho (KLB) (human, UniProt Q86Z14 53-997); assay: BLI off-rate screening (Octet), crude supernatant;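 note: supernatants tested at 25 µg/mL, dissociation from biosensors recorded in D-PBS with 0.1% BSA over 1800 s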
T2 construct: Bought protein; also called human KLB; β-Klotho
T2 sequence (looked up): T1 sequence (looked up)
Throughout, for Mean E max, Luciferase reporter gene assay: reference of the scale not given here.

cell surface receptor composed of the tyrosine kinase receptor FGFR1c and co-receptor beta-Klotho (KLB), sequence (P11362 22-822, chain 1 of 2): as the sequence (P11362 22-822, chain 1 of 2) above
cell surface receptor composed of the tyrosine kinase receptor FGFR1c and co-receptor beta-Klotho (KLB), sequence (Q86Z14 whole entry, chain 2 of 2): as the sequence (Q86Z14 whole entry, chain 2 of 2) above

B1: 16H7 variant with light chain substitution D95S (antibody, human IgG4 S228P, lambda, V domains shown)
VH: not shown
VL: SYVLTQPPSVSVAPGQTARITCGGNNIGSESVHWYQQKPGQAPVLVVYDDSDRPSGIPERFSGSNSGNTATLTISRVEAGDEADYYCQVWDGNSSHVVFGGGTKLTVLG
Mean E max, Luciferase gene reporter assay [1]: 37%

B2: 16H7 variant with light chain substitution S94K (antibody, human IgG4 S228P, lambda, V domains shown)
VH: not shown
VL: B1 VL with S94K, S95D
Mean E max, Luciferase gene reporter assay [1]: 104%
Mean EC50, Luciferase gene reporter assay [1]: 0.185 nM

B3: 16H7 light chain variant G28A (antibody, human IgG4 S228P, lambda, V domains shown)
VH: not shown
VL: B1 VL with G28A, S95D
Mean E max, Luciferase reporter gene assay [2]: 92%
Mean EC50, Luciferase reporter gene assay [2]: 0.123 nM
koff [3]: 3.3e-05 s⁻¹

B4: 16H7 light chain variant E30A (antibody, V domains shown)
VH: not shown
VL: B1 VL with E30A, S95D
notes: copies: 2 + 2
Mean E max, Luciferase reporter gene assay [2]: 103%
Mean EC50, Luciferase reporter gene assay [2]: 0.146 nM
koff [3]: 5.1e-05 s⁻¹

B5: 16H7 light chain variant E30C (antibody, V domains shown)
VH: not shown
VL: B1 VL with E30C, S95D
notes: copies: 2 + 2
Mean E max, Luciferase reporter gene assay [2]: 92%
Mean EC50, Luciferase reporter gene assay [2]: 0.114 nM
koff [3]: 9.6e-05 s⁻¹

B6: 16H7 light chain variant E30D (antibody, human IgG4 S228P, lambda, V domains shown)
VH: not shown
VL: B1 VL with E30D, S95D
Mean E max, Luciferase reporter gene assay [2]: 96%
Mean EC50, Luciferase reporter gene assay [2]: 0.118 nM
koff [3]: 3.6e-05 s⁻¹

B7: 16H7 light chain variant E30F (antibody, V domains shown)
VH: not shown
VL: B1 VL with E30F, S95D
notes: copies: 2 + 2
Mean E max, Luciferase reporter gene assay [2]: 92%
Mean EC50, Luciferase reporter gene assay [2]: 0.107 nM
koff [3]: 9.7e-05 s⁻¹

B8: 16H7 light chain variant E30G (antibody, human IgG4 S228P, lambda, V domains shown)
VH: not shown
VL: B1 VL with E30G, S95D
Mean E max, Luciferase reporter gene assay [2]: 94%
Mean EC50, Luciferase reporter gene assay [2]: 0.138 nM
koff [3]: 4.8e-05 s⁻¹

B9: 16H7 light chain variant E30I (antibody, human IgG4 S228P, lambda, V domains shown)
VH: not shown
VL: B1 VL with E30I, S95D
Mean E max, Luciferase reporter gene assay [2]: 108%
Mean EC50, Luciferase reporter gene assay [2]: 0.136 nM
koff [3]: 7.3e-05 s⁻¹

B10: 16H7 light chain variant E30L (antibody, V domains shown)
VH: not shown
VL: B1 VL with E30L, S95D
notes: copies: 2 + 2
Mean E max, Luciferase reporter gene assay [2]: 96%
Mean EC50, Luciferase reporter gene assay [2]: 0.16 nM
koff [3]: 6.9e-05 s⁻¹

B11: 16H7 light chain variant E30M (antibody, V domains shown)
VH: not shown
VL: B1 VL with E30M, S95D
notes: copies: 2 + 2
Mean E max, Luciferase reporter gene assay [2]: 100%
Mean EC50, Luciferase reporter gene assay [2]: 0.12 nM
koff [3]: 3.8e-05 s⁻¹

B12: 16H7 light chain variant E30N (antibody, V domains shown)
VH: not shown
VL: B1 VL with E30N, S95D
notes: copies: 2 + 2
Mean E max, Luciferase reporter gene assay [2]: 110%
Mean EC50, Luciferase reporter gene assay [2]: 0.163 nM
koff [3]: 2.4e-05 s⁻¹

B13: 16H7 light chain variant E30Q (antibody, V domains shown)
VH: not shown
VL: B1 VL with E30Q, S95D
notes: copies: 2 + 2
Mean E max, Luciferase reporter gene assay [2]: 99%
Mean EC50, Luciferase reporter gene assay [2]: 0.123 nM
koff [3]: 1e-07 s⁻¹

B14: 16H7 light chain variant E30R (antibody, V domains shown)
VH: not shown
VL: B1 VL with E30R, S95D
notes: copies: 2 + 2
Mean E max, Luciferase reporter gene assay [2]: 96%
Mean EC50, Luciferase reporter gene assay [2]: 0.162 nM
koff [3]: 3.7e-05 s⁻¹

B15: 16H7 light chain variant E30S (antibody, human IgG4 S228P, lambda, V domains shown)
VH: not shown
VL: B1 VL with E30S, S95D
Mean E max, Luciferase reporter gene assay [2]: 114%
Mean EC50, Luciferase reporter gene assay [2]: 0.132 nM
koff [3]: 1.6e-05 s⁻¹

B16: 16H7 light chain variant E30T (antibody, V domains shown)
VH: not shown
VL: B1 VL with E30T, S95D
notes: copies: 2 + 2
Mean E max, Luciferase reporter gene assay [2]: 100%
Mean EC50, Luciferase reporter gene assay [2]: 0.105 nM
koff [3]: 4.9e-05 s⁻¹

B17: 16H7 light chain variant E30V (antibody, V domains shown)
VH: not shown
VL: B1 VL with E30V, S95D
notes: copies: 2 + 2
Mean E max, Luciferase reporter gene assay [2]: 108%
Mean EC50, Luciferase reporter gene assay [2]: 0.14 nM
koff [3]: 4.1e-05 s⁻¹

B18: 16H7 light chain variant E30Y (antibody, V domains shown)
VH: not shown
VL: B1 VL with E30Y, S95D
notes: copies: 2 + 2
Mean E max, Luciferase reporter gene assay [2]: 107%
Mean EC50, Luciferase reporter gene assay [2]: 0.152 nM
koff [3]: 7.6e-05 s⁻¹

B19: 16H7 light chain variant G28C (antibody, human IgG4 S228P, lambda, V domains shown)
VH: not shown
VL: B1 VL with G28C, S95D
Mean E max, Luciferase reporter gene assay [2]: 100%
Mean EC50, Luciferase reporter gene assay [2]: 0.103 nM
koff [3]: 9.1e-06 s⁻¹

B20: 16H7 light chain variant G28D (antibody, human IgG4 S228P, lambda, V domains shown)
VH: not shown
VL: B1 VL with G28D, S95D
Mean E max, Luciferase reporter gene assay [2]: 107%
Mean EC50, Luciferase reporter gene assay [2]: 0.126 nM
koff [3]: 4e-05 s⁻¹

B21: 16H7 light chain variant G28E (antibody, human IgG4 S228P, lambda, V domains shown)
VH: not shown
VL: B1 VL with G28E, S95D
Mean E max, Luciferase reporter gene assay [2]: 105%
Mean EC50, Luciferase reporter gene assay [2]: 0.12 nM
koff [3]: 1.8e-05 s⁻¹

B22: 16H7 light chain variant G28F (antibody, human IgG4 S228P, lambda, V domains shown)
VH: not shown
VL: B1 VL with G28F, S95D
Mean E max, Luciferase reporter gene assay [2]: 102%
Mean EC50, Luciferase reporter gene assay [2]: 0.124 nM
koff [3]: 3.9e-05 s⁻¹

B23: 16H7 light chain variant G28H (antibody, human IgG4 S228P, lambda, V domains shown)
VH: not shown
VL: B1 VL with G28H, S95D
Mean E max, Luciferase reporter gene assay [2]: 108%
Mean EC50, Luciferase reporter gene assay [2]: 0.165 nM
koff [3]: 1.8e-05 s⁻¹

B24: 16H7 light chain variant G28I (antibody, human IgG4 S228P, lambda, V domains shown)
VH: not shown
VL: B1 VL with G28I, S95D
Mean E max, Luciferase reporter gene assay [2]: 112%
Mean EC50, Luciferase reporter gene assay [2]: 0.132 nM
koff [3]: 3.3e-05 s⁻¹

B25: 16H7 light chain variant G28K (antibody, human IgG4 S228P, lambda, V domains shown)
VH: not shown
VL: B1 VL with G28K, S95D
Mean E max, Luciferase reporter gene assay [2]: 108%
Mean EC50, Luciferase reporter gene assay [2]: 0.149 nM
koff [3]: 3.3e-05 s⁻¹

B26: 16H7 light chain variant G28L (antibody, human IgG4 S228P, lambda, V domains shown)
VH: not shown
VL: B1 VL with G28L, S95D
Mean E max, Luciferase reporter gene assay [2]: 104%
Mean EC50, Luciferase reporter gene assay [2]: 0.137 nM
koff [3]: 6.1e-06 s⁻¹

B27: 16H7 light chain variant G28N (antibody, human IgG4 S228P, lambda, V domains shown)
VH: not shown
VL: B1 VL with G28N, S95D
Mean E max, Luciferase reporter gene assay [2]: 113%
Mean EC50, Luciferase reporter gene assay [2]: 0.111 nM
koff [3]: 1.8e-05 s⁻¹

B28: 16H7 light chain variant G28P (antibody, human IgG4 S228P, lambda, V domains shown)
VH: not shown
VL: B1 VL with G28P, S95D
Mean E max, Luciferase reporter gene assay [2]: 103%
Mean EC50, Luciferase reporter gene assay [2]: 0.132 nM
koff [3]: 6.2e-05 s⁻¹

B29: 16H7 light chain variant G28R (antibody, human IgG4 S228P, lambda, V domains shown)
VH: not shown
VL: B1 VL with G28R, S95D
Mean E max, Luciferase reporter gene assay [2]: 102%
Mean EC50, Luciferase reporter gene assay [2]: 0.138 nM
koff [3]: 8.5e-05 s⁻¹

B30: 16H7 light chain variant G28S (antibody, human IgG4 S228P, lambda, V domains shown)
VH: not shown
VL: B1 VL with G28S, S95D
Mean E max, Luciferase reporter gene assay [2]: 109%
Mean EC50, Luciferase reporter gene assay [2]: 0.14 nM
koff [3]: 2.3e-06 s⁻¹

B31: 16H7 light chain variant G28T (antibody, human IgG4 S228P, lambda, V domains shown)
VH: not shown
VL: B1 VL with G28T, S95D
Mean E max, Luciferase reporter gene assay [2]: 110%
Mean EC50, Luciferase reporter gene assay [2]: 0.187 nM
koff [3]: 1.5e-06 s⁻¹

B32: 16H7 light chain variant G28W (antibody, human IgG4 S228P, lambda, V domains shown)
VH: not shown
VL: B1 VL with G28W, S95D
Mean E max, Luciferase reporter gene assay [2]: 96%
Mean EC50, Luciferase reporter gene assay [2]: 0.142 nM
koff [3]: 3.7e-05 s⁻¹

B33: 16H7 light chain variant G28Y (antibody, human IgG4 S228P, lambda, V domains shown)
VH: not shown
VL: B1 VL with G28Y, S95D
Mean E max, Luciferase reporter gene assay [2]: 109%
Mean EC50, Luciferase reporter gene assay [2]: 0.131 nM
koff [3]: 5.3e-05 s⁻¹

B34: 16H7 light chain variant V98S (antibody, IgG4, V domains shown)
VH: not shown
VL: B1 VL with S95D, V98S
notes: IgG4 backbone
Mean E max, Luciferase reporter gene assay [4]: 107%
Mean EC50, Luciferase reporter gene assay [4]: 0.094 nM
koff [5]: 3.9e-05 s⁻¹
